# Experimental data published in patent US10335489B2, “Injectable solution at pH 7 comprising at least one basal insulin the pi of which is between 5.8 and 8.5 and a substituted co-polyamino acid” (ADOCIA, priority 2012, dated 2019).
# Assay: Precipitation of insulin glargine on addition to PBS/BSA mixture simulating the subcutaneous medium, centrifugation, RP-HPLC assay of supernatant
# Type: physicochemical
# Conditions: co-polyamino acid 1/insulin glargine/prandial insulin 75/25 composition added to 2 ml PBS/BSA
# Experimental: The PBS/BSA mixture simulates the composition of the subcutaneous medium.
# Centrifugation at 4000 rpm is carried out in order to separate the precipitate from the supernatant.
# (§1) The PBS/BSA mixture simulates the composition of the subcutaneous medium. A precipitate appears.
# as §1
# This composition is added to 2 ml of PBS containing 20 mg/ml of BSA (bovine serum albumin). The PBS/BSA mixture simulates the composition of the subcutaneous medium. A precipitate appears. Centrifugation at 4000 rpm is carried out in order to separate the precipitate from the supernatant. […]
# The PBS/BSA mixture simulates the composition of the subcutaneous medium. A precipitate appears. Centrifugation at 4000 rpm is carried out in order to separate the precipitate from the supernatant.
# as §1
substance,measurement,value
Human insulin (ActRapid ®): commercial solution of human insulin at 100 IU/ml,Precipitation of insulin glargine,yes
